The source of these data is paper PMC8769072, “Proteome‐scale mapping of binding sites in the unstructured regions of the human proteome” (Molecular Systems Biology, 2022).

Test [1] addresses KPNB1 HEAT (importin subunit beta-1, HEAT repeat) (human) (UniProt Q14974). As to the kind of experiment: fluorescence polarisation; competition: unlabelled peptide in serial dilution against the protein domain (master mix at four times the KD) with its FITC-labelled probe peptide; 50 mM KPO4 or NaPO4 pH 7.5; Ki calculated from IC50.
The target of test [2] is SFN 14-3-3 (14-3-3 protein sigma) (human) (UniProt P31947). As to the kind of experiment: fluorescence polarisation; direct saturation binding: protein in serial dilution, FITC-labelled probe peptide fixed (master mix 10 nM probe, 2 mM DTT); 50 mM KPO4 or NaPO4 pH 7.5; quadratic fit.
The target is the same in test [3]. As to the kind of experiment: fluorescence polarisation; competition: unlabelled peptide in serial dilution against the protein domain (master mix at four times the KD) with its FITC-labelled probe peptide; 50 mM KPO4 or NaPO4 pH 7.5; Ki calculated from IC50.
Test [4] addresses TLN1 PTB (talin-1, phosphotyrosine binding-like domain) (human) (UniProt Q9Y490). As to the kind of experiment: fluorescence polarisation; direct saturation binding: protein in serial dilution, FITC-labelled probe peptide fixed (master mix 10 nM probe, 2 mM DTT); 50 mM KPO4 or NaPO4 pH 7.5; quadratic fit. (In general: In fluorescence polarisation assays a small probe gives low polarisation when free and higher when bound to something large.)

For test [5], the target named is KEAP1 Kelch domain, MBP-tagged (human) (UniProt Q14145). As to the kind of experiment: fluorescence polarisation; competition: unlabelled peptide in serial dilution against FITC-labelled probe peptide and protein (master mix with protein at four times the KD), 50 mM KPO4 pH 7.5; sigmoidal dose-response fit, KI.
In test [6] the target is KEAP1 Kelch (kelch-like ECH-associated protein 1, Kelch domain) (human) (UniProt Q14145). As to the kind of experiment: fluorescence polarisation; competition: unlabelled peptide in serial dilution against the protein domain (master mix at four times the KD) with its FITC-labelled probe peptide; 50 mM KPO4 or NaPO4 pH 7.5; Ki calculated from IC50.
Test [7] deals with MDM2 SWIB (E3 ubiquitin-protein ligase MDM2, SWIB domain) (human) (UniProt Q00987). The description is as above.
In test [8] the target is KPNA4 ARM, MBP‐tagged domain, for affinity measurements (human). Description: fluorescence polarisation; competition on MBP-tagged KPNA4 ARM: unlabelled peptide in serial dilution displaces FITC-Myc 320-328 (probe for the major pocket) or FITC-NCOR2 1307-1322 (probe for the minor pocket); 50 mM KPO4 pH 7.5; triplicates.
Test [9] addresses KPNB1 HEAT (importin subunit beta-1, HEAT repeat) (human) (UniProt Q14974). As to the kind of experiment: fluorescence polarisation; direct saturation binding: protein in serial dilution, FITC-labelled probe peptide fixed (master mix 10 nM probe, 2 mM DTT); 50 mM KPO4 or NaPO4 pH 7.5; quadratic fit.
The target of test [10] is KPNA4 ARM (importin subunit alpha-3, armadillo repeat domain) (human) (UniProt O00629). The test is described as above.
For test [11], the target named is MDM2 SWIB, cleaved from the His‐GST tag, for affinity measurements (human). Description: fluorescence polarisation; competition: unlabelled peptide in serial dilution displaces a FITC-labelled probe peptide from the bait domain (master mix with protein at four times the KD of the probe, 10 nM probe, 2 mM DTT); 50 mM KPO4 or NaPO4 pH 7.5; triplicates; probe for KEAP1 Kelch: FITC-NFE2L1 228-243, other probes in Dataset EV6.

Where no end group is shown, it is not given here. [ ]: non-standard residue; d: D form. The star is where a group is joined. FITC = O=C1OC2(c3ccc(O)cc3Oc3cc(O)ccc32)c2ccc(NC(=S)*)cc21; pS = N[C@@H](COP(=O)(O)O)C(=O)O

B1: NUP153 1220-1234 peptide with an extra C-terminal Y (peptide)
peptide: Ac-NPPVATFVFGQSSNPY-NH2
One may read the IC50 as the concentration that gives 50% inhibition. The Ki is the dissociation constant of the complex between target and ligand, obtained from inhibition or displacement. With B1, in test [1], the IC50 is 49 µM and the Ki was 11 µM.

B2: FITC-RAF phosphopeptide probe (peptide)
peptide: {FITC}-QRST[pS]TPNVH-NH2
The term Kd denotes the free concentration of one partner at which half of the binding sites on the other are occupied at equilibrium, for simple one-to-one binding. Read a low Kd as tighter binding. With B2, in [2], the Kd was 524 µM.

B3: MAP1A 1831-1847 peptide (peptide)
peptide: Ac-NEPTTPSWLADIPPWVP-NH2
B3: the half-maximal inhibitory concentration (IC50) in [3] is 1970 µM.

B4: FITC-PIP5K1C 640-655 probe peptide (peptide)
peptide: {FITC}-FPTDERSWVYSPLHYS-NH2
B4 displayed a Kd in test [4] of 0.15 µM.

B5: ATF5 128-143 peptide (peptide)
peptide: PPLPPPPLPPAPSLPY
For the molecule B5, the Ki in test [5] and in [6] was 1470 µM in each case. For the same molecule, the IC50 in test [6] is 4430 µM.

B6: TREF1 332-347 peptide (peptide)
peptide: YMQHLQEQQQQQMHLQ
Turning to B6, the Ki in test [5] and in test [6] was 162 µM each time. Also, the concentration for half-maximal inhibition (IC50) in [6] was 490 µM.

B7: NUMB 616-630 peptide with an added N-terminal G (peptide)
peptide: GFEAQWAALENKSKQR
As to B7, the IC50 in test [7] was 130 µM.

B8: RANBP3 11-26 peptide (peptide)
peptide: Ac-AYAPPVFVFQKDKGQK-NH2
In the case of B8, in test [1], the concentration for half-maximal inhibition (IC50) was 2200 µM.

B9: NKX2‐5_(192–207) K194R mutant peptide, synthetic, P52952 192-207 (peptide)
peptide: KCRRQRQDQTLELVGL
The molecule B9 showed a fold loss of affinity against the wild-type peptide in test [8] of 10 fold.

B10: FITC-NUP153 1223-1232 probe peptide (peptide)
peptide: {FITC}-VATFVFGQSS-NH2
In the case of B10, the Kd in test [9] was found to be 106 µM.

B11: FITC-Myc 320-328 probe peptide (peptide)
peptide: {FITC}-PAAKRVKLD
In turn, B11 yielded a Kd in [10] of 0.03 µM.

B12: FITC-NCOR2 1307-1322 probe peptide (peptide)
peptide: {FITC}-PKRTYDMMEGRVGRAI
B12 registered a dissociation constant Kd in test [10] of 0.23 µM.

B13: RNF115 69-84 peptide (peptide)
peptide: THFAELWGHLDHTMFF
With B13, the IC50 in test [7] was 9 µM.

B14: RNF115_(69–84) peptide, synthetic (peptide)
peptide: THFAELWGHLDHTMFF
In the case of B14, the Ki in test [11] was 0.17 µM.
